Assay results taken from the supplement of paper PMC9170038.

Tested on: MS2 coat protein
Experiment: apparent KD of MS2 coat protein; higher = weaker reporter binding
Settings: Eterna round: R107
In short: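 Apparent KD is reported per design as the median of normalised binding-curve fits across its clusters. The RNA switches were made by on-chip transcription from Illumina sequencing clusters. SNAP-549-labelled MS2 coat protein was then added in twofold steps (0.7 or 1.5 nM to 3 µM; 0.8–1.5 h to 10–20 min per step) in 100 mM Tris-HCl pH 7.5, 80 mM KCl, 4 mM MgCl2, without or with constant ligand.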

[1] = input ligand: theophylline 20 uM
[2] = input ligand: tryptophan 2.4 mM
[3] = input ligand: theophylline 2 mM

| Sequence | apparent KD of MS2 coat protein (input ligand: arginine 13.2 mM) [nM] | apparent KD of MS2 coat protein [1] [nM] | apparent KD of MS2 coat protein [2] [nM] | apparent KD of MS2 coat protein [3] [nM] | apparent KD of MS2 coat protein (input ligand: none) [nM] |
| --- | --- | --- | --- | --- | --- |
| AUCGUACCUGAUGAUACCAGCAUGUGAUCAUAACAUGAGGAUCACCCAUGUAAUCAGUGAUGCCCUUGGCAGCAUAGUCGAUACA [Same State - Theophylline B (Freestyle 6)] | 80.8 | 174 | 149 |  |  |
| AUCGUACCUGAAGAUACCAGCAUGUGAUCAUAACAUGAGGAUCACCCAUGUAAUCAGUGAUGCCCUUGGCAGCUUGAUCGGUACA [Same State - Theophylline B (Freestyle 12)] | 39.6 | 41.3 | 30.2 |  |  |
| UGACAGAUAACCGCUGGUGCUCUCGAGUUGCGAGGACCGGUACGGCCGCCACUCGACAACAUGAGGAUCACCCAUGUUGCGGGUC [Lareara] | 30.7 | 108 |  | 156 |  |
| AGAGUCAGACAAAAGUCUGGCUCAGCCGAAGGAGCGUCCGAAAGGACAGGUAGGUCGCGGUUGCAUGAGGAUCACCCAUGUUCCU [ArgAS 30 #OpenEnded #AlternativeMS2] | 76.7 | 399 | 324 | 528 | 286 |
| ACACCGAAAGGUGCAUUUACCUUAUCAGAUACCAGACUUUACGUUGUCCCUUGGCAGCUGUAUCACAUGAGGAUCACCCAUGUUG [JR_SSTheophyA_Sub011] | 19.3 | 18.8 | 16.6 |  |  |
| AAAAUAAAUAAAACACGUAACAUGAAGGAUACCAGACCGGAAACGGUCCCUUGGCAGCCUCUACAUGAGGAUCACCCAUGUCGUG [Mat - Same State Theophlline A - Mod of Eli - D18] | 110 | 141 | 258 |  |  |
| UGAGUUAGACAAAAGUCUAGCUCUGGUGAAGGAGCGUCCGAAAGGACAGGUAGGUCGCACCACCUGAGGAUCACCCGGGUUCCUA [ArgAS 13 #OpenEnded #AlternativeMS2] | 360 | 544 | 115 | 991 | 167 |
| UAACAUGAGGAUCACCCAUGUAUAGUCGAUACCAGCUCAAGGAAGAGCCCUUGGCAGCGACACUGCCAAGCAUGGGUCAUGGCAG [(Ms2)-(Theo)-(T)'-(M)'-(T)''_Design5] | 20.7 | 31.9 | 19.5 |  |  |
| GGGCGCUAUCCCGCGAGGGAUAGCGUUCGACGAGGACCGGUACGGCCGCCACUCGAACGAGUGGUGACAUGAGGAUCACCCAUGU [Naa] | 28.7 | 56.7 | 49.7 | 59.4 | 53 |
| CUCGAGGCCGGUGAUACCAGACACGAAACUAUACAUGAGGAUCACCCAUGUCAAACAACGGUCCCUUGGCAGCAUGGGUGUAUCC [Enzabemage] | 26.9 | 131 | 33.3 |  |  |
| UGACGAGGCCUGGAUACCAGCGACAUGAGGAUCACCCAUGUAUGAGGAUCAGCCAUGUUAUGCCCUUGGCAGCCACGAAGGUCAG [WQQMULLIN] | 21.6 | 38.2 | 22.9 | 220 | 25.4 |
| UAUAUAUAGGGAAGGAGCGGGAACAUGAGGAUCACCCAUGUACAUGAGGAUCACCCAUGUACCCAGGUAGGUCGCCCAUAUAUAU [Exclusion - Arginine B] | 90.7 | 227 | 241 | 276 | 250 |
| AGAGCAUUGACGGCCGCCACUCAUGUCACAUGAGGAUCACCCAUGUGAUGGGUGAUCGCCCGGUUGAGGACCGGGUCAAUGCUCA [Omei Tryp SS B v2] | 42.9 | 123 |  | 121 |  |
| GCACCAGGUACGGAUACCAGCUAUAGGUACAGCGGAGGACAUGAGGAUCACCCAUGUGGUAGCCCUUGGCAGCUGUACCUGGUGC [EThB NP+V+V2 #1 +-Same Structure] | 17.7 | 23.9 | 15.5 | 40.4 | 14.9 |
| CAAAACCUUACAGAUACCAGCACAUGAGGAUCACCCAUGUAUUGGACACUUCGCUCAUCGUGCCCUUGGCAGCUGUGGGACGAGG [Tiatenan] | 30.3 | 132 | 77.6 |  |  |
